# Data as given in PMC9454804.
# Experiments:
# [1] = biological target: Vascular Endothelial Growth Factor Receptor 1 (VEGFR1) (mouse (endogenous in C57BL/6 and eNOS-KO skeletal muscle)) (UniProt P35969)
# [2] = biological target: Vascular Endothelial Growth Factor Receptor 1 (VEGFR1) (mouse (endogenous in C57BL/6 and eNOS-KO skeletal muscle)) (UniProt P35969); remark: listed apart in the source
# [3] = biological target: Vascular Endothelial Growth Factor Receptor 1 (VEGFR1) (mouse (endogenous in C57BL/6 and eNOS-KO skeletal muscle)) (UniProt P35969); remark: listed apart in the source
# UniProt P35969, sequence (P35969 23-1333 S1181G): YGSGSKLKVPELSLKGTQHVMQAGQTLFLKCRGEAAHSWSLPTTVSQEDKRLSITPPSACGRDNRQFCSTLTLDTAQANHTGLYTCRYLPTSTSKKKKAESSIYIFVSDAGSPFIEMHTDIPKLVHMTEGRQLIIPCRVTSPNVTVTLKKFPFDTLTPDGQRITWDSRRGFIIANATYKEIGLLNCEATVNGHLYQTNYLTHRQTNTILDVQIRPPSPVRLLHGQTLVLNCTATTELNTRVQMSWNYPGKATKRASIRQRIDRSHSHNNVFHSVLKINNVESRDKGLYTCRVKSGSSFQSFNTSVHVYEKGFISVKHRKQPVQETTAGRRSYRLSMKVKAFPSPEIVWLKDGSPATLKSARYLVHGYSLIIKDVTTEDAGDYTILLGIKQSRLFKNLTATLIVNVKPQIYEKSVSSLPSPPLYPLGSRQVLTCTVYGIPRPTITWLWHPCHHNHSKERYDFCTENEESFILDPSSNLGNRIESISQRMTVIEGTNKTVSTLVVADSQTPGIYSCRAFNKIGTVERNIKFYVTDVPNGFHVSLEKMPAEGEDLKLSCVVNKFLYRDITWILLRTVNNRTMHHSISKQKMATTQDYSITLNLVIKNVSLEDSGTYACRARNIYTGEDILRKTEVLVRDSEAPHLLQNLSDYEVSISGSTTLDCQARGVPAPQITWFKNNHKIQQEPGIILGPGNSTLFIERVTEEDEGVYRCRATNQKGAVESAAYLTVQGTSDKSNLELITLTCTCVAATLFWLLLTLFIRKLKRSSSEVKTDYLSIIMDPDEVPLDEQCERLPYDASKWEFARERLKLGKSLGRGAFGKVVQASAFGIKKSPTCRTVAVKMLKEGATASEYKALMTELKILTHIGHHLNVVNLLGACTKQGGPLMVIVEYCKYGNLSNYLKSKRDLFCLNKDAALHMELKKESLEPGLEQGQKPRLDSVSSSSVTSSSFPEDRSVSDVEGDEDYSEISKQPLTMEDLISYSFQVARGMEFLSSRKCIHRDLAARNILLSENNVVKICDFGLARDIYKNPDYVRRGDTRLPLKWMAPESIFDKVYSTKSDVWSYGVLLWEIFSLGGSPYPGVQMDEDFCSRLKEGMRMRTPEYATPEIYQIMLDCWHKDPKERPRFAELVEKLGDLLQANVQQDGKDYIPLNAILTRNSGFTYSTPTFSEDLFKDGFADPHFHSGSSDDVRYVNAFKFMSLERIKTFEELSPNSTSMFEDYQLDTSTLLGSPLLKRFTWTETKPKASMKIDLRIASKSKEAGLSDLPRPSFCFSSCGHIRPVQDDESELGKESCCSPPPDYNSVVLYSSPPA
substance,measurement,setting,value
anti-angiogenic VEGF-A isoform VEGF165b (ligand),"pSTAT3 activation, HFD-ischemic muscle treated with VEGF165b-Ab vs. IgG at day 3 post-HLI",[1],1.5 fold
same,"pVEGFR1(Y1333) activation, HFD-ischemic muscle treated with VEGF165b-Ab vs. IgG at day 3 post-HLI",[1],1.5 fold
same,"pSTAT3 activation, eNOS-KO ischemic muscle treated with VEGF165b-Ab vs. IgG",[2],1.4 fold
same,"pVEGFR1(Y1333) activation in VEGFR1 pull-down fractions, eNOS-KO ischemic muscle treated with VEGF165b-Ab vs. IgG",[2],1.3 fold
same,"pVEGFR1(Y1333) activation in VEGFR1 pull-down fractions, non-ischemic HFD vs. non-ischemic normal chow muscle",[3],1.5 fold
